The nature of the data set: label from the status in PepcDB records.

Turning to “SLTSKNQFYKPGMLVPVFSAAGLLKNGRYQFLLQQIETLSLLPTEQYAQLYEALVYRFVEFVQVLPIRLDEPLCSLMNEGLLRGVNSLNHYIQNHPEATPLERYALFSAGLLLEVAHAVVNQKIFITDEEGNFIKQWNPFSGPLIDDVETKHYKIMPLSSYYQRNIPSITPILVRQLLPDEGFLWLTSDMRVFSDWMQALRDDEGEGGGRFEHVLQLFKHKNIDGLFNTLPALPVNLQDSPATAHADAFLNWLKEALATNQIKVNTSDAGVHVIPEGVFLEKTGIFKQYIDLHVNVPVNLFTVYQQFGNLFGLTKLSGIDYRFEQLFSEYPDALKRKSKMGFAGLIGIRRASPTREGVLIADPNLIFTRGEIPSATSYLKLSSAQKSQNIPMT”, the protein production result is reported as “not failed”.
For the sequence “SNQDITQPTAIIAVVGVGAEQGIGAAVCRRFAQEKFKVYVAGRTLNKVEKVAAAIHRQGGQAVAYVLDAENEQQLQTLFDHLNDQPEALAAVIHNVGGNIPSIFLQSSLKFFSQMWRSTFLSSVLVAQRSLSIFQKQQQGTLIFTGASASLRGKPFFAAFSMGKSALRSYALNLAELYRSQNIHVAHVMVDGMVDGDRVNKALWGLGRLARLTRGTGGLNIDAIAENYWMLYQQNVDLWT”, the protein production entry was “failed”.
In the case of “SNRMTEMHVCLADAIQKDNRPEISNRLFRSNAVEKEILRVQKLLKNAKLAWMFTNCFPNTLDTTVHFRKGSDGKPDTFVYTGDIHAMWLRDSGAQVWPYVQLANSDPELKEMLAGVILRQFKCINIDPYANAFNDGAIPDGHWMSDLTDMKPELHERKWEIDSLCYPLRLAYHYWKTTGDASIFNEEWIQAITNVLKTFKEQQRKDGVGPYKFQRKTERALDTVSNDGLGAPVKPVGLIVSSFRPSDDATTLQFLVPSNFFAVSSLRKAAEILEKVNKKTALSKECKDLAQEVETALKKYAVYNHPKYGKIYAFEVDGFGNHHLMDDANVPSLLAMPYLGDVNVNDPIYQNTRRFVWSEDNPYFFKGKAGEGIGGPHIGYDMVWPMSIMMKAFTSQNDAEIKTCIKMLMDTDAGTGFMHESFHKDNPKKFTRAWFAWQNTLFGELILKLVNEGKVDLLNSIQ”, the protein production result is recorded as “not failed”.
For the sequence “SPEPYPPLVIETPAMEAAVTALIDRVFGPGRFAKSSERLREGNTLLADCSFVSLRDGAPVGCVRMWPVTIGGEPVAFLGPLAVDPDERSAGLGQALVEAACEAARAAGWRAVLLVGDGPYFGRVGFTNAHTAGVIMPGPVDQRRVLLLPLRDGG”, the protein production entry is “failed”.
On to “SQPLLDRSIPDFTAFTTVDDWLSAIKMVQYRDSFLTAGFTSLQLVTQMTSEDLLRIGITLAGHQKKILNSIHSMRVQISQSPTAMA”, for which the protein production entry is “not failed”.
To “SRRRRSGTEPEKIEPGEGASRSRRDMLKDGGQQGLGTGARDPDKATRFRMEELRLTSTTFALTGDSAHNQAMVHWSGHNSSVILILTKLYDYNLGSITESSLWRSTDYGTTYEKLNDKVGLKTILSYLYVCPTNKRKIMLLTDPEIESSLLISSDEGATYQKYRLNFYIQSLLFHPKQEDWILAYSQDQKLYSSAEFGRRWQLIQESVVPNRFYWSVMGSSKEPDLVHLEARTVDGHSIYLTCRMQNCTEANRNKPFPGYIDPDSLIVQDDYVFVQLTSGGRPHYYVSYRRSPFAQMKLPKYALPKDMHVISTDENQVFAAVQEWNQNDTYNLYISDTRGVYFTLALENVQSSRGPEGNVMIDLYEVAGIKGMFLANKKIDNQVKTFITYNKGRDWRLLQAPDADLRGDPVHCLLPYCSLHLHLKVSENPYTSGIIASRDTAPSIIVASGNIGSELSDSDISMFVSSDAGNTWRQIFEEEHSILYLDQGGVLVAMKHTSLPIRHLWLSFDEGRSWSKYSFTSIPLFVDGVLGEPGEETLIMTVFGHFSHRSEWQLVKVDYKSIFDRRCAEEDYRPWQLHSQGEACIMGAKRIYKKRKSERKCMQGKYAGAMESEPCVCTEADFDCDYGYERHSNGQCLPAFWFNPSSLSKDCSLGQSYLNSTGYRKVVSNNCTDGVREQYTAKPQKCP” belongs “not failed”; to “SRVLSRMSGTIRHFQAITLALSRERDLERMLDGVLSHLVEAAGGDAGGVYLYDAEQALLRLAASCRGEHYPSELAVDESARQHLAATVTQALSLHERSLAVVLNDRSQALLGILVLQMGEEQAQERVGEAFRRFVEELSGVAAVAIETRQLVEAQQRLLDA”, “failed”; to “SSEDLAKQLASYKAQLQQVEAALSGNGENEDLLKLKKDLQEVIELTKDLLSTQPSETLASSDSFASTQPTHSWKVGDKCMAVWSEDGQCYEAEIEEIDEENGTAAITFAGYGNAEVTPLLNLKPVEEGRKAKEDSGNKPMSKKEMIAQQREYKKKKALKKAQRIKELEQEREDQKVKWQQFNNRAYSKNKKGQVKRSIFASPESVTGKVGVGTCGIADKPMTQYQDTSKYNVRHLMPQ”, “failed”.
“SSEQIRRAPKVLLHDHLDGGLRPGTIVELARDAGYSGLPETDPDKLGIWFREAADSGSLERYLETFAHTCAVMQTRAALVRVAAECAEDLAADGVVYAEVRYAPEQHLEAGLSLEEVVEAVNEGFRAGERRAKEDGNRIRVGALLTAMRHAARALEIAELANRYRDAGVVGFDIAGAEAGFPPTRHLDAFEYLKRENNHFTIHAGEAFGLPSIWQALQWCGADRLGHGVRIIDDIQVREDGSVKLGRLASYVRDKRIPLELCPSSNLQTGAASSYADHPIGLLRRLHFRATVNTDNRLMSGTSMSREFEHLVDAFGYTLDDMAWFSVNAMKSAFIPFDERLAMINDV”: the protein production entry is “failed”.
“SSLRPSPRLLCTATKQKNSGQNLEEDMGQSEQKADPPATEKTLLEEKVKLEEQLKETVEKYKRALADTENLRQRSQKLVEEAKLYGIQAFCKDLLEVADVLEKATQCVPKEEIKDDNPHLKNLYEGLVMTEVQIQKVFTKHGLLKLNPVGAKFDPYEHEALFHTPVEGKEPGTVALVSKVGYKLHGRTLRPALVGVVKEA”: the protein production entry is on record as “failed”.
As for “SSPFPIPNTQYPISNPQFNRWLVPMAGGPNARIAIKLLPALVTLSDDPQIRLTRVFKPWEFRPDMTVLEQAIRQLMRRRQLSSTVIAAPVQADSVVEGVIKLVETEGYDVVVLGASREGLLQQAIQGNIPEAIASGVDSTVILVR”, the protein production result is recorded as “failed”.
As to “SSSDIAYIYVNNKKSYLKDKKVRQALTYGLDRKKYVDTALQGYGSVANVPIAPVSWAYTEEGINKYPHDVEKAKKLLDEAGWKVGSDGVREKDGQKLKLTYYASNTGKTNDIFIPIAKESYKEIGVELNPELMDFNTMLSKVGKGDYDLAAVSTPGISDPSEVVSDYLSTNPKSDTGYSNPKVDDLIVKGIGTTDIEKRKAIYKELYKELSDDPPVILLNYRK”, the protein production result was “failed”.
Take “STGKKPKHHVLSHDIIPASKPIAEKLQIQPESPVVELKRILYNDDQPLTFEVTHYPLDLFPGIDTFIADGVSMHDILKQQYKVVPTHNTKLLNVVYAQQEESKYLDCDIGDALFEIDKTAFTSNDQPIYCSLFLMHTNRVTFTINSPYT”: the protein production entry was “not failed”.
As to “STISILATSDIHGNVLNYDYATGKAPTNTQGLAKVSSYVNSVRASKPNVMLIDDGDTIQGTPLSYYYDKIDTTSEYPLMKIMGAMKYDTWTLGNHEFNYGLPTLNRVISDARKENINVLSANTYNSDNTNFVNPYYIKTFNINGKTVNVGILGLTTKCIPDWEDPSHYAGLHFNDLVDEAKLWVPRMKAAGANVVIVAAHSGEEGAADTIPENQIKAIATNVSGIDAIVAGHAHVTVNDTSLKNPNGKTVPVVEPNKWGTFVSQIDITLDNSGNASTINTQNVKMTDSIPEDPNIVNIIQPYQNKTLDYIST”, the protein production entry is reported as “failed”.
For “STSPEIASLSWGQMKVKGSNTTYKDCKVWPGGSRTWDWRETGTEHSPGVQPADVKEVVEKGVQTLVIGRGMSEALKVPSSTVEYLKKHGIDVRVLQTEQAVKEYNALVAQGVRVGGVFHSTC”, the protein production entry is on record as “not failed”.
Next, “SVDLAHIRQVRAEADCLFNNDEVEAAIGRVAEAINRDLGETNPVVFCVMNGGLIFSGKLLPLLDFPLELSYLHATRYRNETSGGELFWKAKPEISFIDRDVLIIDDILDEGHTLSAIIDFCKHAGARAVHTAVLVDKEHERKARPDLKASFTGLYCADRYVFGYGMDYKGYWRNA”: “failed”.
To “SVNAATVDLRIMETTDLHSNMMDFDYYKDAATEKFGLVRTASLIEQARAEVKNSVLVDNGDVIQGSPLGDYMAAKGLKEGDVHPVYKAMNTLNYAVGNLGNHEFNYGLDFLHKALAGAKFPYVNANIIDAKTGKPMFTPYLIQDTRVVDSDGQIHTLRIGYIGFVPPQIMTWDKANLNGKVTVNDITETARKYIPEMRAKGADVVVVVAHSGLSADPYQAMAENSVYYLSQVPGVDAIMFGHAHAVFPGKDFANIKGADIAKGTLNGVPAVMPGMWGDHLGVVDLVLNNDSGKWQVTQSKAEARPIYDAVAKKSLAAEDGKLVSVLKADHDATREFVSK” belongs “not failed”; to “SWLYGKSDARWTITEYADLECPYCRTYTPQLMQWIDGQTDVNLVWHHFPLQMHGAATLKEARLVQCAGKLGGGKAFWNAIDQVLKHTRGDGQGLVTSIALSGIDAVVLDRCATLDADVALHVDQQLQLAQQAGVTATPTIKITDTQTRHSVRLEGPVDEVSILSAMDRLAFESK”, “failed”; to “SYETSQHNLDAVEAVLSRLQKQTGEMAAYMVPVGYRALCVSQRESMQALRCSFVQGQSQPLLRGASSKVMLAYMPAARCEKILRYFGEDPTLDKWQSEFEKIRRHGYAVSTSEIDPGVSGISAPVMKGSKLIGAISVMAPAHRVESNKQRIILHVLQAARAL”, “not failed”.
To “SYTEVRELVNFVCRYLFGHIPRRPVGIFGAELGNYLVSHFSSTWDVHHPKNGEMKRMINTTTSLCFASSAEEAGVPPSDVLRLLPTNMIIFANPGHVFVRLSENGIETPIWIGDVNCDENYQSVPEYVVRTAAIRAEPCSNLGAAGKSVLVGKKPLLTNDKAALEMVNTMYSPLAREKCDDINANLSHLREMYPFRFVYKPSSAQTFSGVEFSQTRFGSSKSRPDLQTMDVIKYLSSQQVSSSSSPSFTYSSINDQMRYSPRF” belongs “not failed”; to “SYTFDTTDHKSPCCNFQWYIFRKQGESRIITCELFGVIVSLENRWDWLEFMIDDSLQLTAFRCPKRDKLGMETLLQLGDVAQVTGNWKLSNGAFLNATKIAIHNNPDVECKYWLQQIQKYKSKVCELEIPSDWIRRQQRAHNLKTDAVLSFSAQVSTAAATCWKLWKKHFNQGGKISLQRLWEVIQRENCPKMQELSSCRRNQIVQLLIHLGYLIPLSKEPETYVLLIDDILDKQVMQIFNQNIASKTLSLREVAYRLEEYFHVEEISLERVEESILRLAYKEKVEQV”, “not failed”.
Consider “TAANAVASRVGAPLGHDYAVLSLSDRLKPWDVVAQRISAVASADMAFAVYNPASKSRTWQVAAMRDLVLEHRSPDTPVIIGRDVAGAQESVRVVRLADLDPAEIDMRCLLIVGSSMTTVVENEHGTRVFTPRRYPG”, for which the protein production entry is recorded as “failed”.
To “TACKGDYKDAARQVRCGTLVVDETRGDPKSRRITVAVAIVKASEPKAGQPPVVYLHGGPGGSAVGGLPRMLKSKAALEYVAVDQDWIFIDQRGGGQSDPNLDCPGANLTDAGPPSDKDAQAIIACMKAFQAKGVNLSRYNAVEVAKDVQDLRKLLKLPLIDLYGGSYGTRIEAAIQTHAAEGVRAVVQDSPWPPEADWTVGGPAMVSSSIDIVMAKCAKVAECAKRYPDLKAKLAVVAERWLAGPQTINGKTYTADDLGGWLMDASYFTASVLPRDLWKIIEGDVSPVAEFVESRDYYSEGQFMTHLCKEEIPFEARAAVADGTQKDPIARLMVASMQRIHDVCAAIDVGPINKVEQAPVKTAIPTLFLAAEIDPGCPPELTRAAAKGYQGSQVVIVTNATHGVSRSSPCVRKMIRSFFQDPTKPVDRSCLPAADTPMAFMYQ” belongs “failed”; to “TAEEVVTVALRCPSGNVLRRRFLKSYSSQVLFDWMTRIGYHISLYSLSTSFPRRPLAVEGGQSLEDIGITVDTVLILEEKE”, “failed”.
